Test results from US20240166731A1 (Janssen / Centocor, published 2024).
Where a chain is given by its changes, count along the chain named. Names may count otherwise. Blank lines part the entries; values can stand above or below the binder they belong to.

Tests used:
[1] = biological target: T1, human full-length recombinant tau (2N4R) (human, UniProt P10636 2-758); assay: SPR, Biacore T200, 25 C, mAb captured by anti-Fc on CM4 chip, tau in solution, 1:1 Langmuir fit; koff based on 1-hour limit, 5% dissociation
T1 construct: also called full length tau protein; full-length recombinant Tau protein
T1 sequence (P10636 other isoform, or with tags, fused parts or gaps limits assumed): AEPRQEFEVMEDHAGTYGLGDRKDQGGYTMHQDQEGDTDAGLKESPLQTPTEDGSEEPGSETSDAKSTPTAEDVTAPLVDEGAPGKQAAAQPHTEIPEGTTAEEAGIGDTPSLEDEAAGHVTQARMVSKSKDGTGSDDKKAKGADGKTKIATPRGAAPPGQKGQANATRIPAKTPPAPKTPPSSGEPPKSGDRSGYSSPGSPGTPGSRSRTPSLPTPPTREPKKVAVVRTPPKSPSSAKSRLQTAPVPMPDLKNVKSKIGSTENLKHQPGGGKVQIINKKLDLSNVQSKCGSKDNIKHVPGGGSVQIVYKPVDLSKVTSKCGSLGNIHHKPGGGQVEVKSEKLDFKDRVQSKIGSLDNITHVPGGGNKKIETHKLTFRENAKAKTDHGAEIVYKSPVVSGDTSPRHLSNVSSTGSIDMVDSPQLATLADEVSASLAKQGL
Description: (§1) The interactions of anti-tau antibodies with human full-length recombinant tau (2N4R) were studied by SPR using a Biacore T200 at 25° C. with HBS pH 7.4 buffer, supplemented with 3 mM EDTA, and 0.05% Tween 20. Briefly, a biosensor surface was prepared by coupling a mixture of anti-mouse/anti-human IgG Fcγ-fragment specific antibody to the surface of a CM4 sensor chip using manufacturer's instructions for amine-coupling chemistry (>4000 response units (RU)). The coupling buffer was 10 mM sodium acetate, pH 4.5. The anti-tau antibodies were diluted in the running buffer and injected to obtain enough capture to enable detection of antigen binding. Capture of anti-tau mAbs was followed by injection of recombinantly expressed tau solutions ranging from 0.12 nM to 75 nM at 5-fold dilutions. The association and dissociation were monitored for 3 minutes and 60 min respectively at 50 μL/min flow rate. Regeneration of the sensor surface was performed with 0.85% H₃PO₄. The binding sensorgrams were fitted using to a 1:1 Langmuir binding model to obtain on-rates, off-rates, and affinities. PT1B635 and PT1B901 bound to full length tau protein with similar tight affinities as the parent mAbs, PT/66 or PT1B545 (FIG. 3 and Table 2 below).

[2] = biological target: T1, human full-length recombinant tau (2N4R); assay: SPR, Biacore T200, 25 C, mAb captured by anti-Fc on CM4 chip, tau in solution, 1:1 Langmuir fit
Description: as §1

[3] = biological target: T1, human full-length recombinant tau (2N4R); assay: SPR, mAb captured, tau in solution, single-cycle kinetics, 120 min dissociation, 1:1 Langmuir fit
[4] = biological target: T1, human full-length recombinant tau (2N4R); assay: SPR, mAb captured, tau in solution, single-cycle kinetics, 1:1 Langmuir fit; koff based on 2-hour limit, 5% dissociation

koff [1]: < 1.42e-05 s⁻¹ | Kd [2]: < 0.031 nM | kon [2]: 450000 M⁻¹ s⁻¹
B1: PT/66 anti-PHF-Tau monoclonal Ab (mouse parent) (antibody, V domains shown)
VH: QVQLQQPGAELVKPGASVKMSCKASGYTFTSYWITWVKQRPGQGLEWIGDIHPGRGSTKSNEKFKSKATLTVDTSSSTAYMQFSSLTSEDSAVYYCARRWGFDYWGQGTTLTVSS
VL: DIVITQDELSNPVTSGESVSISCRSSKSLLYKDGKTYLNWFLQRPGQSPQLLIYLMSTRASGVSDRFSGSGSGTDFTLEISRVKAEDVGVYYCQQLVDYPLTFGAGTKLELK
notes: Murine mAb

koff [1]: < 1.42e-05 s⁻¹ | Kd [2]: < 0.028 nM | kon [2]: 510000 M⁻¹ s⁻¹
B2: PT1B545 (antibody, mouse IgG2a, kappa, V domains shown)
VH: B1 VH
VL: DIVITQDELSNPVTSGESVSISCRSSKSLLYKDGKTYLNWFLQRPGQSPQLLIYLMSTRASGVSDRFSGSGSGTDFTLEISRVKAEDVGVYYCQQLVDYPLTFGAGTKLELKR
notes: Recombinant version of the parent mAb PT/66, with mouse constant regions; also called rec. parent; recombinant parent of PT/66

koff [1]: < 1.42e-05 s⁻¹ | Kd [2]: < 0.041 nM | kon [2]: 370000 M⁻¹ s⁻¹
B3: PT1B635 (antibody, human IgG1, kappa, V domains shown)
VH: QVQLVQSGAEVKKPGASVKVSCKASGYTFTSYWITWVRQAPGQGLEWMGDIHPGRGSTKYAQKLQGRVTLTTDTSTSTAYMELRSLRSDDTAVYYCARRWGFDYWGQGTLVTVSS
VL: DIVITQTPLSLPVTPGEPASISCRSSKSLLYKDGKTYLNWFLQKPGQSPQLLIYLMSTRASGVPDRFSGSGSGTDFTLKISRVEAEDVGVYYCQQLVDYPLTFGQGTKLEIKR
notes: also called humanized PT/66 variant

Kd [3]: < 6.18 pM | kon [3]: 1.99e+06 M⁻¹ s⁻¹ | koff [4]: < 1.19e-05 s⁻¹
B4: PT1B1183 (antibody, human IgG1, kappa, V domains shown)
VH: B3 VH with A40R, L70M
VL: B3 VL with I4M, L11S, P15L, E17Q, L42Q, K44R, Q50R, S72A
notes: also called humanized antibody derived from PT1B1153 by modifying the 2nd light chain framework region

Kd [2]: 0.059 nM | koff [2]: 2e-05 s⁻¹ | kon [2]: 300000 M⁻¹ s⁻¹
B5: PT1B901 (antibody, human IgG1, kappa, V domains shown)
VH: B3 VH
VL: B3 VL with G34L
notes: also called humanized PT/66 variant with G44L in LCDR1
